Literature values in US9422609B2, “Methods, compositions and devices for maintaining chemical balance of chlorinated water” (priority 2006, dated 2016).

Conditions: hydrolysis of cyanuric acid

B1: cyanuric acid amidohydrolase from strain ADP of Pseudomonas sp.: cyanuric acid amidohydrolase (EC 3.5.2.15) from strain ADP of Pseudomonas sp. (protein, UniProt P58329 1-363, looked up)
Cyanuric acid amidohydrolase: MYHIDVFRIPCHSPGDTSGLEDLIETGRVAPADIVAVMGKTEGNGCVNDYTREYATAMLAACLGRHLQLPPHEVEKRVAFVMSGGTEGVLSPHHTVFARRPAIDAHRPAGKRLTLGIAFTRDFLPEEIGRHAQITETAGAVKRAMRDAGIASIDDLHFVQVKCPLLTPAKIASARSRGCAPVTTDTYESMGYSRGASALGIALATEEVPSSMLVDESVLNDWSLSSSLASASAGIELEHNVVIAIGMSEQATSELVIAHGVMSDAIDAASVRRTIESLGIRSDDEMDRIVNVFAKAEASPDGVVRGMRHTMLSDSDINSTRHARAVTGAAIASVVGHGMVYVSGGAEHQGPAGGGPFAVIARA
- Km: 71 µM
- Vmax: 8.4 µmol/min/mg
- turnover rate: 3 reactions per second
